These are literature values, as cited in article PMC3347567.

The data set has as its target PEDF-R (Homo sapiens) (UniProt Q96AD5).
Sequence of UniProt Q96AD5 (Q96AD5 whole entry): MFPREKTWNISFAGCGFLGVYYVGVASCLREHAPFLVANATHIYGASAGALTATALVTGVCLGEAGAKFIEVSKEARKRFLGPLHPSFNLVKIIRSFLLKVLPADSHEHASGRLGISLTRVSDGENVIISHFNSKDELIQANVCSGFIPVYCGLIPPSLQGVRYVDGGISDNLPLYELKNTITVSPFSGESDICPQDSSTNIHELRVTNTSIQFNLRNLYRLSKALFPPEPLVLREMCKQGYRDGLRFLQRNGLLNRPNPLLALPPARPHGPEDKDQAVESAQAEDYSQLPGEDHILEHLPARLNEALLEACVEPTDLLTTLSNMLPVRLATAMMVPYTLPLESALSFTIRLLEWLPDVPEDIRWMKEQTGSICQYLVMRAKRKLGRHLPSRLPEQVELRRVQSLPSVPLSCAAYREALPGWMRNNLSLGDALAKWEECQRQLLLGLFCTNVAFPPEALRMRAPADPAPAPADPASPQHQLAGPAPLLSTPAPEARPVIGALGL

Consider PEDF (from UniProt P36955), for which the Kd is 3.03 nM.
